Results: patent US20050283857A1 (UNIVERSITY OF GEORGIA RESEARCH FOUNDATION, published 2005)

Target: Cry1Ab toxin (Bacillus thuringiensis)
Assay: 125I-Cry1Ab toxin binding saturation assay on S2 cells; dissociation constant (Kcom)

B1: Cad7-12 truncated Bt-R1a cadherin expressed in S2 cells (receptor)
chain: GTLEQNFRVREMSAGGLVVGSVRADDIDGPLYNQVRYTIFPREDTDKDLIMIDFLTGQISVNTSGAIDADTPPRFHLYYTVVASDRCSTEDPADCPPDPTYWETEGNITIHITDTNNKVPQAETTKFDTVVYIYENATHLDEVVTLIASDLDRDEIYHTVSYVINYAVNPRLMNFFSVNRETGLVYVDYETQGSGEVLDRDGDEPTHRIFFNLIDNFMGEGEGNRNQNDTEVLVILLDVNDNAPELPPPSELSWTISENLKQGVRLEPHIFAPDRDEPDTDNSRVGYEILNLSTERDIEVPELFVMIQIANVTGELETAMDLKGYWGTYAIHIRAFDHGIPQMSMNETYELIIHPFNYYAPEFVFPTNDAVIRLARERAVINGVLATVNGEFLERISATDPDGLHAGVVTFQVVGDEESQRYFQVVNDGANLGSLRLLQAVPEEIREFRITIRATDQGTDPGPLSTDMTFRVVFVPTQGEPRFASSEHAVAFIEKSAGMEESHQLPLAQDIKNHLCEDDCHSIYYRIIDGNSEGHFGLDPVRNRLFLKKELIREQSASHTLQVAASNSPDGGIPLPASILTVTVTVREADPRPVFMRELYTAGISTADSIGRELLRLHATQSEGAAITYAIDYDTMVVDPSLEAVRQSAFVLNAQTGVLTLNIQPTATMHGLFKFEVTATDTAGAQDRTDVTVYVVSSQNRVYFVFVNTLQQVEDNRDFIADTFSAGFNMTCNIDQVVPANDPVTGVALEHSTQMRGHFIRDNVPVLADEIEQIRSDLVLLSSIQTTLAARSLVLQDLLTNSSPDSAPDSSLTVYVLASLSAVLGFMCLVLLLTFIIRTRALNRRLEALSMTKYGSLDSGLNRAGIAAPGTNKHTVEGSNPIFNEAIKTPDLDAISEGSNDSDLIGIEDLPHFGNVFMDPEVNEKANGYPEVANHNNNFAFNPTPFSPEFVNGQFRKI
- Kd: 2.05 nM
